Results published in paper PMC7641127, “MCL1 binds and negatively regulates the transcriptional function of tumor suppressor p73” (Cell Death & Disease, 2020).
*: point of attachment. FITC = O=C1OC2(c3ccc(O)cc3Oc3cc(O)ccc32)c2ccc(NC(=S)*)cc21; Ahx = NCCCCCC(=O)O

Biological target: recombinant MCL1 (human) (UniProt Q07820)
Experiment: fluorescence polarisation; direct FPA: recombinant MCL1 with FITC-peptide, 30 min, 1× PBS pH 7.4; limit of detection of the probe 5 nM

recombinant MCL1 (human), sequence (Q07820 whole entry): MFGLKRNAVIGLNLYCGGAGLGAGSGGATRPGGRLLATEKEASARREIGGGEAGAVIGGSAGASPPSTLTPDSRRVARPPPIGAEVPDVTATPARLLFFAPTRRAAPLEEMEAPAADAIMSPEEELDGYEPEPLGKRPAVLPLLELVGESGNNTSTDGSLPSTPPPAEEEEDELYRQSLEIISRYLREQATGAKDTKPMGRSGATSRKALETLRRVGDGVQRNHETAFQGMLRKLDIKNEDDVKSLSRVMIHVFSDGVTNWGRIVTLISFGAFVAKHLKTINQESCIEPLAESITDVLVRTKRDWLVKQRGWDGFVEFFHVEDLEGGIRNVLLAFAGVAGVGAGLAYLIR

Kd: < 5 nM
Binder: {FITC-Ahx}-GQVGRQLAIIGDDINRRYD-NH2 [FITC-AHX-BAK peptide]
